Laboratory results reported in the supplement of paper PMC9112550, “Optimization of the antimicrobial peptide Bac7 by deep mutational scanning” (BMC Biology, 2022).

tested on: Escherichia coli TOP10; assay: shrunken log2 fold change of peptide-encoding DNA abundance (4.5 h post-induction vs induction); higher = less antimicrobial activity (less host growth inhibition); settings: time post-induction: 4.5 h; library: site-saturation at positions 5, 18, 19, 20
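Note: peptides expressed intracellularly from a pBAD plasmid library in pooled LB shake-flask culture, induced with 0.3% L-arabinose, DNA abundance read by NGS, three biological replicates, DESeq2 with apeglm shrinkage.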

Sequence | shrunken log2 fold change
RRIRVRPPRLPRPRPRPPNMPRP | -0.316
RRIRVRPPRLPRPRPRPPNPPRP | 0.379
RRIRVRPPRLPRPRPRPPNVPRP | -0.0619
RRIRVRPPRLPRPRPRPPQFPRP | 0.146
RRIRVRPPRLPRPRPRPPSMPRP | -0.0312
RRIRVRPPRLPRPRPRPPSSPRP | 0.275
RRIRVRPPRLPRPRPRPPTRPRP | 0.508
RRIRVRPPRLPRPRPRPPTYPRP | -0.432
RRIRVRPPRLPRPRPRPPYMPRP | -0.592
RRIRVRPPRLPRPRPRPPYPPRP | 0.0226
RRIRVRPPRLPRPRPRPQARPRP | -0.109
RRIRVRPPRLPRPRPRPQCDPRP | -0.0528
RRIRVRPPRLPRPRPRPQCMPRP | -0.528
RRIRVRPPRLPRPRPRPQDNPRP | -1.05
RRIRVRPPRLPRPRPRPQEGPRP | -0.15
RRIRVRPPRLPRPRPRPQEPPRP | 0.0426
RRIRVRPPRLPRPRPRPQFRPRP | -1.21
RRIRVRPPRLPRPRPRPQHEPRP | -0.245
RRIRVRPPRLPRPRPRPQHHPRP | -0.182
RRIRVRPPRLPRPRPRPQIPPRP | -0.298
RRIRVRPPRLPRPRPRPQIYPRP | -0.251
RRIRVRPPRLPRPRPRPQLTPRP | -0.0141
RRIRVRPPRLPRPRPRPQNGPRP | -0.356
RRIRVRPPRLPRPRPRPQPCPRP | -0.0059
RRIRVRPPRLPRPRPRPQPRPRP | 0.429

Sequence | shrunken log2 fold change
RRIRVRPPRLPRPRPRPQQQPRP | 0.0503
RRIRVRPPRLPRPRPRPQQYPRP | -0.258
RRIRVRPPRLPRPRPRPQSNPRP | -0.394
RRIRVRPPRLPRPRPRPQTLPRP | -0.372
RRIRVRPPRLPRPRPRPQTSPRP | -0.0971
RRIRVRPPRLPRPRPRPQYFPRP | -0.19
RRIRVRPPRLPRPRPRPQYLPRP | -0.12
RRIRVRPPRLPRPRPRPRAHPRP | 0.00164
RRIRVRPPRLPRPRPRPRDFPRP | 0.0486
RRIRVRPPRLPRPRPRPRENPRP | 0.473
RRIRVRPPRLPRPRPRPRERPRP | 0.578
RRIRVRPPRLPRPRPRPRGHPRP | 0.175
RRIRVRPPRLPRPRPRPRHCPRP | -0.383
RRIRVRPPRLPRPRPRPRHKPRP | 0.13
RRIRVRPPRLPRPRPRPRIQPRP | -0.196
RRIRVRPPRLPRPRPRPRIYPRP | -0.15
RRIRVRPPRLPRPRPRPRKTPRP | 0.0951
RRIRVRPPRLPRPRPRPRMCPRP | -0.35
RRIRVRPPRLPRPRPRPRPIPRP | 0.611
RRIRVRPPRLPRPRPRPRPNPRP | 0.381
RRIRVRPPRLPRPRPRPRQQPRP | 0.168
RRIRVRPPRLPRPRPRPRQYPRP | 0.00898
RRIRVRPPRLPRPRPRPRRWPRP | 0.334
RRIRVRPPRLPRPRPRPRSDPRP | -0.258
RRIRVRPPRLPRPRPRPRSIPRP | 3.22

Sequence | shrunken log2 fold change
RRIRVRPPRLPRPRPRPRSRPRP | 0.227
RRIRVRPPRLPRPRPRPRTTPRP | 0.378
RRIRVRPPRLPRPRPRPRTWPRP | 0.0366
RRIRVRPPRLPRPRPRPRVDPRP | 0.455
RRIRVRPPRLPRPRPRPRWMPRP | -0.0415
RRIRVRPPRLPRPRPRPRYLPRP | -0.184
RRIRVRPPRLPRPRPRPSADPRP | -0.397
RRIRVRPPRLPRPRPRPSAMPRP | 0.0604
RRIRVRPPRLPRPRPRPSAPPRP | 0.358
RRIRVRPPRLPRPRPRPSARPRP | 0.275
RRIRVRPPRLPRPRPRPSAVPRP | -0.0662
RRIRVRPPRLPRPRPRPSCAPRP | -0.16
RRIRVRPPRLPRPRPRPSDMPRP | -0.519
RRIRVRPPRLPRPRPRPSEAPRP | 0.0122
RRIRVRPPRLPRPRPRPSEEPRP | 0.00143
RRIRVRPPRLPRPRPRPSEFPRP | -0.233
RRIRVRPPRLPRPRPRPSEIPRP | -0.623
RRIRVRPPRLPRPRPRPSEQPRP | -0.0241
RRIRVRPPRLPRPRPRPSFNPRP | -0.411
RRIRVRPPRLPRPRPRPSFQPRP | -0.22
RRIRVRPPRLPRPRPRPSFVPRP | -0.422
RRIRVRPPRLPRPRPRPSGKPRP | 0.0575
RRIRVRPPRLPRPRPRPSGNPRP | -0.225
RRIRVRPPRLPRPRPRPSHAPRP | -0.24
RRIRVRPPRLPRPRPRPSITPRP | -0.504

Sequence | shrunken log2 fold change
RRIRVRPPRLPRPRPRPSKEPRP | -0.263
RRIRVRPPRLPRPRPRPSLFPRP | -0.269
RRIRVRPPRLPRPRPRPSMMPRP | -0.888
RRIRVRPPRLPRPRPRPSMNPRP | 0.331
RRIRVRPPRLPRPRPRPSMTPRP | -0.175
RRIRVRPPRLPRPRPRPSNCPRP | -0.225
RRIRVRPPRLPRPRPRPSPLPRP | -0.0757
RRIRVRPPRLPRPRPRPSPVPRP | 0.216
RRIRVRPPRLPRPRPRPSQCPRP | -0.187
RRIRVRPPRLPRPRPRPSQHPRP | -0.39
RRIRVRPPRLPRPRPRPSQLPRP | -0.234
RRIRVRPPRLPRPRPRPSQMPRP | -0.0502
RRIRVRPPRLPRPRPRPSSQPRP | -0.0546
RRIRVRPPRLPRPRPRPSTAPRP | -0.0759
RRIRVRPPRLPRPRPRPSTCPRP | -0.325
RRIRVRPPRLPRPRPRPSTDPRP | -0.0464
RRIRVRPPRLPRPRPRPSTHPRP | -0.573
RRIRVRPPRLPRPRPRPSTRPRP | 0.552
RRIRVRPPRLPRPRPRPSVDPRP | -0.193
RRIRVRPPRLPRPRPRPSWDPRP | 0.192
RRIRVRPPRLPRPRPRPSYPPRP | -0.392
RRIRVRPPRLPRPRPRPTCFPRP | -0.155
RRIRVRPPRLPRPRPRPTCRPRP | 0.147
RRIRVRPPRLPRPRPRPTDQPRP | -0.0162
RRIRVRPPRLPRPRPRPTDRPRP | -0.00137

Sequence | shrunken log2 fold change
RRIRVRPPRLPRPRPRPTFAPRP | 0.294
RRIRVRPPRLPRPRPRPTFCPRP | -0.0418
RRIRVRPPRLPRPRPRPTFKPRP | -0.152
RRIRVRPPRLPRPRPRPTGFPRP | 0.0174
RRIRVRPPRLPRPRPRPTGNPRP | 2.77
RRIRVRPPRLPRPRPRPTHNPRP | 0.0759
RRIRVRPPRLPRPRPRPTHQPRP | 0.209
RRIRVRPPRLPRPRPRPTITPRP | -0.178
RRIRVRPPRLPRPRPRPTKAPRP | -0.142
RRIRVRPPRLPRPRPRPTKPPRP | 0.172
RRIRVRPPRLPRPRPRPTLCPRP | 0.0223
RRIRVRPPRLPRPRPRPTLMPRP | 0.169
RRIRVRPPRLPRPRPRPTLNPRP | -0.102
RRIRVRPPRLPRPRPRPTMIPRP | 0.0351
RRIRVRPPRLPRPRPRPTNGPRP | 0.239
RRIRVRPPRLPRPRPRPTNKPRP | -0.254
RRIRVRPPRLPRPRPRPTQDPRP | 0.386
RRIRVRPPRLPRPRPRPTQKPRP | 0.837
RRIRVRPPRLPRPRPRPTRDPRP | 0.472
RRIRVRPPRLPRPRPRPTSDPRP | 0.431
RRIRVRPPRLPRPRPRPTSMPRP | -0.192
RRIRVRPPRLPRPRPRPTSTPRP | -0.103
RRIRVRPPRLPRPRPRPTTSPRP | 0.097
RRIRVRPPRLPRPRPRPTVSPRP | -0.131
RRIRVRPPRLPRPRPRPTYDPRP | -0.372

Sequence | shrunken log2 fold change
RRIRVRPPRLPRPRPRPTYRPRP | -0.594
RRIRVRPPRLPRPRPRPTYVPRP | 0.00864
RRIRVRPPRLPRPRPRPVAKPRP | 0.233
RRIRVRPPRLPRPRPRPVCEPRP | 0.206
RRIRVRPPRLPRPRPRPVDAPRP | 0.485
RRIRVRPPRLPRPRPRPVDNPRP | -0.663
RRIRVRPPRLPRPRPRPVDRPRP | 0.257
RRIRVRPPRLPRPRPRPVDVPRP | -0.106
RRIRVRPPRLPRPRPRPVEVPRP | -0.0382
RRIRVRPPRLPRPRPRPVFTPRP | -0.14
RRIRVRPPRLPRPRPRPVGAPRP | 0.329
RRIRVRPPRLPRPRPRPVGCPRP | 0.417
RRIRVRPPRLPRPRPRPVGGPRP | 0.306
RRIRVRPPRLPRPRPRPVGHPRP | -0.166
RRIRVRPPRLPRPRPRPVHHPRP | -0.199
RRIRVRPPRLPRPRPRPVHPPRP | 0.312
RRIRVRPPRLPRPRPRPVHWPRP | 0.133
RRIRVRPPRLPRPRPRPVIWPRP | 0.286
RRIRVRPPRLPRPRPRPVKPPRP | 0.247
RRIRVRPPRLPRPRPRPVKVPRP | 0.0348
RRIRVRPPRLPRPRPRPVLDPRP | -0.145
RRIRVRPPRLPRPRPRPVLKPRP | -0.193
RRIRVRPPRLPRPRPRPVLQPRP | 0.164
RRIRVRPPRLPRPRPRPVLYPRP | -0.281
RRIRVRPPRLPRPRPRPVNQPRP | -0.0283
